Experimental data taken from PMC4731314 (Cell reports, 2016).

Molecular target: the molecule itself
Experiment: AUC

Row | Protein | binding result | stoichiometry N
1 | full-length Imp2 purified from S. pombe (natural protein, UniProt Q10199 1-670, looked up) MSQQLSFNASSAKPDKSFSNYFWGANDEGYHALLSRFSDVKHINEELRSFYHERANIEEDYAKRMAKLSRTTFSSLETGCLKESVQVMKAEVDNMAKSHLQISQLLQDDVENAFTRYAASLKDKKKMIVSGIEKVHKDKLSKHQALVKAQDKYHYLCKKVNYYVSQQNMLFGKELEKNNAKLNKTQNAITASSSDYQSAVAAVRDSYARWTNEWRSTCDKLQDIEEERRHFLKSVMWTFTLLISRSCFNDDQACERIRKNLEQCSVSQDVLEFIDAKSTGTGIPQPPKFYDYYKGEVPDDSVELVQANFQRAQTKIENDNMPLNRPYVLSATARNESSFENTLPNTPSAIQSLTTVSSNSSQNGRSSPKKSFLSKFKLTSRPSTPNVGNTAPDALSSPRNDSPLTSAADEQMKHLSLQEEPKQNPTPAAPGAFPNSNTLPPRYNELGSLPSPNSVSFTEDSRPNVNTPSRRQQIQEEFGSVLQMENRAVSPVYDSRKNGSRSSFTLRKSRSPKRPSSSLSQNASRLPRSLTPGNLEPNYDFGVRVDPASGTAPTDDEPYTDRDSSFVDDTINTKATGNTSNRLSLPAYPTDGGDTSIDNPTSTDGQRILGYVSALYDYDAAIPEEISFRKGDTIAVLKLYEDGWWEGFVVGEDDHNRGQFPSNFVREIEV | binds | –
2 | Imp2(Dimer-Dimer-4A) purified from S. pombe (natural protein, UniProt Q10199 1-670, looked up) MSQQLSFNASSAKPDKSFSNYFWGANDEGYHALLSRFSDVKHINEELRSFYHERANIEEDYAKRMAKLSRTTFSSLETGCLKESVQVMKAEVDNMAASHLAISQLLQDAVENAFTAYAASLKDKKKMIVSGIEKVHKDKLSKHQALVKAQDKYHYLCKKVNYYVSQQNMLFGKELEKNNAKLNKTQNAITASSSDYQSAVAAVRDSYARWTNEWRSTCDKLQDIEEERRHFLKSVMWTFTLLISRSCFNDDQACERIRKNLEQCSVSQDVLEFIDAKSTGTGIPQPPKFYDYYKGEVPDDSVELVQANFQRAQTKIENDNMPLNRPYVLSATARNESSFENTLPNTPSAIQSLTTVSSNSSQNGRSSPKKSFLSKFKLTSRPSTPNVGNTAPDALSSPRNDSPLTSAADEQMKHLSLQEEPKQNPTPAAPGAFPNSNTLPPRYNELGSLPSPNSVSFTEDSRPNVNTPSRRQQIQEEFGSVLQMENRAVSPVYDSRKNGSRSSFTLRKSRSPKRPSSSLSQNASRLPRSLTPGNLEPNYDFGVRVDPASGTAPTDDEPYTDRDSSFVDDTINTKATGNTSNRLSLPAYPTDGGDTSIDNPTSTDGQRILGYVSALYDYDAAIPEEISFRKGDTIAVLKLYEDGWWEGFVVGEDDHNRGQFPSNFVREIEV | – | 2
